Values quoted from earlier work, collected in US20240156960A1 (priority 2020, published 2024).

Assays:
[1] = tested on: SARS-CoV2; conditions: source Davide Robbiani et al., 2020
[2] = tested on: SARS-CoV1
[3] = tested on: coronavirus named in the cell (SARS-CoV2, SARS-CoV1), S protein
[4] = tested on: coronavirus named in the cell (SARS-CoV2, SARS-CoV1)

B1: C130 (antibody, listed as Homo sapiens, V domains shown)
VH: QVQLVQSGAEVKKPGASVKVSCKASGYTFTNYYMHWVRQAPGQGLEWMGIINPSGGSTGYAQKFQGRVTMTRDTSTSTVYMELSSLRSEDTAVYYCARSRPTPDWYFDLWGRGTLVTVSS
VL: SYELTQPPSVSVAPGKTARITCGGNNIGSKSVHWYQQKPGQAPVLVIYYDSDRPSGIPERFSGSNSGNTATLTISRVEAGDEADYYCQVWDSSSDHPGVVFGGGTKLTVL
Q: What does the source list for B1?
A: Binds to [1]: SARS-CoV2; Not Neutralising Vs [2]: SARS-CoV1,

B2: 9A1 (antibody, listed as Homo sapiens, V domains shown)
VH: EVQLLESGGGVVQPGRSLRLSCVVSGFTFNNYGMHWVRQAPGKGLEWVAVISYEGSVKYYGDHVDGRFTISRDPFKNTLYLHMNNLRPDDTAVYYCAKVSAIFWLGQGLSPIDVWGQGTTVTVSS
VL: DIVMTQSPATLSASPGERVTLSCRASQNIRNNLAWYQQKPGQAPRLLIHGASTRAAGAPARFSGSGSDTQFTLTVSSLQSEDFAVYYCHQYSKWPVTFGGGTKVDIK
Q: For B2, which “Binds to” value [3] is on record?
A: SARS-CoV2

Q: What about the “Not Neutralising Vs” value [4] of the same molecule?
A: SARS-CoV2
